From patent publication US20120071629A1, “APPOPTOSIN AND USES THEREOF FOR TREATING NEURODEGENERATIVE DISEASE AND CANCER” (Tsinghua University, priority 2006, published 2012)

B1: 168: Appoptosin polypeptide; human amino acid sequence SEQ ID NO:2; expressed in cells by transfection (protein)
chain: MIQNSRPSLLQPQDVGDTVETLMLHPVIKAFLCGSISGTCSTLLFQPLDLLKTRLQTLQPSDHGSRRVGMLAVLLKVVRTESLLGLWKGMSPSIVRCVPGVGIYFGTLYSLKQYFLRGHPPTALESVMLGVGSRSVAGVCMSPITVIKTRYESGKYGYESIYAALRSIYHSEGHRGLFSGLTATLLRDAPFSGIYLMFYNQTKNIVPHDQVDATLIPITNFSCGIFAGILASLVTQPAGVIKTHMQLYPLKFQWIGQAVTLIFKDYGLRGFFQGGIPRALRRTLMAAMAWTVYEEMMAKMGLKS
modifications: Description of Artficial Sequence note = synthetic construct
notes: Appoptosin polypeptide; expressed in cells by transfection
B2: 118-304AA: deletion mutant of myc-168, amino acids 118-304 (protein)
chain: GHPPTALESVMLGVGSRSVAGVCMSPITVIKTRYESGKYGYESIYAALRSIYHSEGHRGLFSGLTATLLRDAPFSGIYLMFYNQTKNIVPHDQVDATLIPITNFSCGIFAGILASLVTQPAGVIKTHMQLYPLKFQWIGQAVTLIFKDYGLRGFFQGGIPRALRRTLMAAMAWTVYEEMMAKMGLKS
modifications: left off: small tags and cut ends

Key:
[1] = system: N2a cells; assay: BH3I- and staurosporine-induced caspase 3 cleavage/activation; format: cell-based
Method: N2a cells were first subjected to downregulation of 168 by RNAi, and were then treated with apoptotic reagents BH3I and staurosporine. […] In addition, 168 is subjected to cleavage under apoptotic treatments (indicated by *).

[2] = biological target: T1, APP (Homo sapiens, UniProt P05067); assay: Anti-APP (369) IP and anti-myc Western blot in co-transfected 293T cells; format: binding; conditions: myc-168 or deletion mutants co-transfected with APP into 293T cells
T1 construct: expressed in transfected cells; host or cells: 293T cells
Description: Protein expressions are shown in the middle and lower panels.
Deletion mutants of myc-168 and APP were co-transfected into 293T cells and cell lysates subjected to anti-APP (369) IP and anti-myc WB to detect 168-APP interaction (upper panel).

[3] = biological target: T2, APP-AICD(C99) (Homo sapiens, UniProt P05067); assay: Anti-myc IP and anti-HA Western blot in co-transfected 293T cells; format: binding
T2 construct: Deletion mutants of HA-168 and myc-tagged APP-AICD(C99) were co-transfected into 293T cells; myc; expressed in transfected cells; host or cells: 293T cells
Description: IP-WB the minimal domain of 168 to interact with AICD is 118-264AA. Deletion mutants of HA-168 and myc-tagged APP-AICD(C99) were co-transfected into 293T cells and cell lysates subjected to anti-myc IP and anti-HA WB to detect 168-APP interaction (upper panel). Protein expressions are shown in the middle and lower panels.

[4] = system: N2a cells stably expressing human APP Swedish mutations; assay: Aβ40 generation, IP and urea gel; format: cell-based; conditions: overexpression of 168, 2 days, secreted Aβ in conditional media
Method: N2a cells stably expressing human APP Swedish mutations were transfected with 168 for 2 days. Secretary Aβ in conditional media were immunoprecipitated using antibody 4G8 and detected using antibody 6E10. The samples were analyzed using Urea gel, which can differentiate variant Aβ species.

[5] = system: N2a cells stably expressing human APP695; assay: Aβ generation and APP metabolism, IP and Western blot; format: cell-based
Description: (§1) N2a cells stably expressing human APP695 were transfected with NotchΔE-myc(Notch lacking its ectodomain and carrying a myc tag at its C-terminus) for 1 day. Cells were split equally and transfected with 168 with different dosage for 2 days. Conditional media were collected for sAPPα and secretary Aβ assays. Cells were lysed in 6% SDS and assayed for Notch/NICD conversion and APP metabolism. 168/FLJ20551 and Notch/NICD were detected using myc antibody 9E10. APP AICD was detected using APP C-terminus antibody 369. APP βCTFs, intracellular Aβ, and secretary Aβ in conditional media were immunoprecipitated using antibody 4G8 and detected using antibody 6E10. Soluble APPα were detected using 6E10. α-tubulin was used as control.

[6] = system: mouse fibroblast cells; assay: 168-mediated apoptosis in APP WT and APP/APLP2 DKO cells, annexin V/PI double staining; format: cell-based; conditions: mouse fibroblast cells transfected with 168
Description: APP wild type (WT) and APP/APLP2 double knockout (DKO) mouse fibroblast cells were transfected with control (vector) or 168.

[7] = system: mitochondrial membrane potential; assay: Mitochondrial membrane potential after 168 expression; format: cell-based
Description: MCCP: an ionophore to disrupt proton gradient used as a positive control to decrease mitochondrial membrane potential.

[8] = system: 239T cells; assay: Apoptosis by annexin V/PI double staining after 168 expression; format: cell-based
[9] = system: Notch; assay: Notch/NICD conversion, Western blot; format: cell-based; conditions: overexpression of 168; NotchΔE-myc transfected N2a cells; ratios of NICD to Notch
Description: as §1

[10] = biological target: T3, APP-AICD (AID) (Homo sapiens, UniProt P05067); assay: Yeast two-hybrid assay with quantitative β-galactosidase activity; format: binding; conditions: yeast AH109 co-transfected with pGBKT7-AID; ONPG substrate
T3 construct: The intracellular end of human APP was amplified, i.e., AID, was amplified; expressed in transfected cells; host or cells: yeast AH109
Description: The interaction of AICD-Ga14 activation domain (AD) with 168(264-304) fragment-DNA binding domain (DBD) activates GAL4-driven beta-galactosidase expression in yeast.
The intracellular end of human APP was amplified, i.e., AID, was amplified. In order to completely expose AID, 5 amino acids of Aβ and […] (SEQ ID NO:9) were extended in front of AID. The PCR product was recovered and purified. It was then inserted into protein expression vector pGBKT7 for identification by means of sequencing. The successfully constructed vector is named pGBKT7-AID. Positively identified pGBKT7-AID was transferred into yeast AH109, and then cultured on a SD/-Trp plate. […]
Screening and Identification of Positive Clones: Yeast expression vector pGBKT7 contained the autocrine gene of Trp (tryptophan) and the DNA binding domain of GAL4. pACT2 contained the autocrine gene of Leu (leucine) and the DNA activation structure domain. […] The results were compared and analyzed against information available in GenBank.
Quantitative Analysis of β-galactosidase Activity: Yeast co-transfected positive clones grown on the plate were picked and cultured further in a SD/Leu/-Trp liquid culture medium at 30° C. overnight. […] The solution was centrifuged and the supernatant was taken to measure its absorbance at 420 nm to calculate its β-galactosidase activity. […]

[11] = system: 293T cells; assay: Cytochrome c release from mitochondria, immunoblotting of mitochondria and cytosol; format: cell-based; conditions: 293T cells transfected with 168
Description: Mitochrondia and cytosol were isolated from 293T cells transfected with 168 and subjected to immunoblotting with different antibodies: Tubulin serves as a cytosol marker and CoxIV as a mitochondrial marker.

| Molecule | caspase 3 cleavage for activation upon apoptotic treatment [1] | interaction with APP in IP-WB [2] | interaction with APP-AICD(C99) in cells ([3]; HA-168 deletion mutants and myc-tagged C99 co-transfected into 293T cells) | minimal domain of 168 to interact with AICD ([3]; IP-WB) | Aβ40 generation [4] | sAPPα ([5]; overexpression of 168, conditional media) | Aβ generation ([5]; overexpression of 168, different dosage, 2 days) | 168-induced cell apoptosis in APP/APLP2 DKO cells compared with APP WT cells [6] | mitochondrial membrane potential [7] | apoptosis [8] | conversion of Notch to NICD [9] | intensity of interaction with AID (bait protein) by β-galactosidase activity [10] | cytochrome c release from mitochondria [11] |
| --- | --- | --- | --- | --- | --- | --- | --- | --- | --- | --- | --- | --- | --- |
| CN[C@@H]1C[C@H]2O[C@@](C)([C@@H]1OC)n1c3ccccc3c3c4c(c5c6ccccc6n2c5c31)C(=O)NC4 [staurosporine] | cleaved |  |  |  |  |  |  |  |  |  |  |  |  |
| B1 |  | interacts | interacts | 118-264AA | reduces Aβ40 generation in a dose-dependent manner | slightly increases | inhibits Aβ generation in a dose-dependent manner | dramatically less | decrease | induces apoptosis | does not affect | fairly intense | induces cytochrome c release |
| B2 |  | still detected |  |  |  |  |  |  |  |  |  |  |  |
